In paper PMC8156991, “The Profound Influence of Lipid Composition on the Catalysis of the Drug Target NADH Type II Oxidoreductase” (Membranes, 2021):

Substrate: CC1=CC(=O)c2ccccc2C1=O
Assay: cells, lysate or membranes named
Type: biochemical, Caldalkalibacillus thermarum
Details: 33% PG + 67% PE vesicles with 1% menaquinone-7 embedded as shuttle, co-substrate NADH, 20 mM MOPS, 30 mM Na2SO4, pH 7.4, 25 °C, lipid-dependent

B1: CthNDH-2 (Caldalkalibacillus thermarum type II NADH:quinone oxidoreductase) (Caldalkalibacillus thermarum TA2.A1) (protein)
chain: MSKPSIVILGAGYGGIVAALGLQKRLNYNEADITLVNKNDYHYITTELHQPAAGTMHHDQARVGIKELIDEKKIKFVKDTVVAIDREQQKVTLQNGELHYDYLVVGLGSEPETFGIEGLREHAFSINSINSVRIIRQHIEYQFAKFAAEPERTDYLTIVVGGAGFTGIEFVGELADRMPELCAEYDVDPKLVRIINVEAAPTVLPGFDPALVNYAMDVLGGKGVEFKIGTPIKRCTPEGVVIEVDGEEEEIKAATVVWTGGVRGNSIVEKSGFETMRGRIKVDPYLRAPGHENIFIVGDCALIINEENNRPYPPTAQIAIQHGENVAANLAALIRGGSMTPFKPHIRGTVASLGRNDAIGIVGGRKVYGHAASWLKKLIDMRYLYLIGGLSLVLKKGRF
For B1, the Km was 21.7 µM.
